According to patent US20220064257A1 (published 2022):
Changes are numbered by the printed parent chain. Where “and” joins values, the source holds several entries; their conditions need not be identical. Identical values can stand only once.

Key:
[1] = molecular target: T1, MYD88 L265P peptide on HLA-B*07:02 (human); test: printed as KD (TCR affinity/avidity): non-linear curve analysis of the IFNγ ELISA response; TCR-transduced CD8+ T cells from healthy donors with K562 cells transduced with HLA*B07:02 and loaded with titrated peptide; full-length, on cells
T1 peptide: RPIPIKYKAM

[2] = molecular target: T2, human self peptide predicted by Expitope for TCR2304 (source protein not named) peptide on HLA-B*07:02 (human); test: cytokine release
T2 peptide: LPIHITYAAM

[3] = molecular target: T3, human self peptide predicted by Expitope for TCR2304 (source protein not named) peptide on HLA-B*07:02 (human); test: cytokine release
T3 peptide: RPRMIGYGAI

[4] = molecular target: T4, human self peptide predicted by Expitope for TCR2304 (source protein not named) peptide on HLA-B*07:02 (human); test: cytokine release
T4 peptide: RPAMIPYWAL

[5] = molecular target: T5, human self peptide predicted by Expitope for TCR2304 (source protein not named) peptide on HLA-B*07:02 (human); test: cytokine release
T5 peptide: VPIIIKYLMF

[6] = molecular target: T6, human self peptide predicted by Expitope for TCR2304 (source protein not named) peptide on HLA-B*07:02 (human); test: cytokine release
T6 peptide: RPVPISYHQL

[7] = molecular target: T7, human self peptide predicted by Expitope for TCR2304 (source protein not named) peptide on HLA-B*07:02 (human); test: cytokine release
T7 peptide: KPIRIGYKIW

[8] = molecular target: T8, human self peptide predicted by Expitope for TCR2304 (source protein not named) peptide on HLA-B*07:02 (human); test: cytokine release
T8 peptide: RPDLIDYKSL

[9] = molecular target: T9, human self peptide predicted by Expitope for TCR2304 (source protein not named) peptide on HLA-B*07:02 (human); test: cytokine release
T9 peptide: LPLYISYVAM

[10] = molecular target: T10, human self peptide predicted by Expitope for TCR2304 (source protein not named) peptide on HLA-B*07:02 (human); test: cytokine release
T10 peptide: LPTRIAYYAM

[11] = molecular target: T11, human self peptide predicted by Expitope for TCR2304 (source protein not named) peptide on HLA-B*07:02 (human); test: cytokine release
T11 peptide: TPPKIPYKAI

[12] = molecular target: T12, human self peptide predicted by Expitope for TCR2304 (source protein not named) peptide on HLA-B*07:02 (human); test: cytokine release
T12 peptide: LPQSIVYKYM

[13] = molecular target: T13, human self peptide predicted by Expitope for TCR2304 (source protein not named) peptide on HLA-B*07:02 (human); test: cytokine release
T13 peptide: RPQPIYYGFS

[14] = molecular target: T14, MYD88 L265P epitope of SEQ ID NO: 2 with alanine at position 2 (alanine scan); residues derived from the … (human); test: cytokine release
T14 peptide: RAIPIKYKAM

B1: TCR2709 (TCR, V domains shown)
Valpha: DAKTTQPNSMESNEEEPVHLPCNHSTISGTDYIHWYRQLPSQGPEYVIHGLTSNVNNRMASLAIAEDRKSSTLILHRATLRDAAVYYCILRDRYGGSQGNLIFGKGTKLSVKP
Vbeta: NAGVTQTPKFRVLKTGQSMTLLCAQDMNHEYMYWYRQDPGMGLRLIHYSVGEGTTAKGEVPDGYNVSRLKKQNFLLGLESAAPSQTSVYFCASSYWPTTGESTDTQYFGPGTRLTVL
- EC50 of peptide [1]: 0.102 µg/ml and 83 nM

B2: TCR1605 (TCR, V domains shown)
Valpha: GESVGLHLPTLSVQEGDNSIINCAYSNSASDYFIWYKQESGKGPQFIIDIRSNMDKRQGQRVTVLLNKTVKHLSLQIAATQPGDSAVYFCAEGTGSARQLTFGSGTQLTVLP
Vbeta: DVKVTQSSRYLVKRTGEKVFLECVQDMDHENMFWYRQDPGLGLRLIYFSYDVKMKEKGDIPEGYSVSREKKERFSLILESASTNQTSMYLCASGPFRDSVLTLVANVLTFGAGSRLTVL
- EC50 of peptide [1]: 0.009 µg/ml and 7.4 nM

B3: TCR2304 (TCR, V domains shown)
Valpha: GQNIDQPTEMTATEGAIVQINCTYQTSGFNGLFWYQQHAGEAPTFLSYNVLDGLEEKGRFSSFLSRSKGYSYLLLKELQMKDSASYLCAVRASGTYKYIFGTGTRLKVLA
Vbeta: DAGVIQSPRHEVTEMGQEVTLRCKPISGHNSLFWYRQTMMRGLELLIYFNNNVPIDDSGMPEDRFSAKMPNASFSTLKIQPSEPRDSAVYFCASQDSYEQYFGPGTRLTVT
- binding result [2]: no recognition
- binding result [3]: no recognition
- binding result [4]: no recognition
- binding result [5]: no recognition
- binding result [6]: no recognition
- binding result [7]: no recognition
- binding result [8]: no recognition
- binding result [9]: no recognition
- binding result [10]: no recognition
- binding result [11]: no recognition
- binding result [12]: no recognition
- binding result [13]: no recognition
- binding result [14]: no recognition
- EC50 of peptide [1]: 0.003 µg/ml and 2.4 nM

B4: TCR2705 (TCR, V domains shown)
Valpha: QKEVEQDPGPLSVPEGAIVSLNCTYSNSAFQYFMWYRQYSRKGPELLMYTYSSGNKEDGRFTAQVDKSSKYISLFIRDSQPSDSATYLCAMSGTGGFKTIFGAGTRLFVKA
Vbeta: ETGVTQTPRHLVMGMTNKKSLKCEQHLGHNAMYWYKQSAKKPLELMFVYSLEERVENNSVPSRFSPECPNSSHLFLHLHTLQPEDSALYLCASSQDRPNYYGYTFGSGTRLTVV
- EC50 of peptide [1]: 0.02 µg/ml and 16 nM

B5: TCR2716 (TCR, V domains shown)
Valpha: AQTVTQSQPEMSVQEAETVTLSCTYDTSENNYYLFWYKQPPSRQMILVIRQEAYKQQNATENRFSVNFQKAAKSFSLKISDSQLGDTAMYFCAFMKPYSGGGADGLTFGKGTHLIIQP
Vbeta: AAGVIQSPRHLIKEKRETATLKCYPIPRHDTVYWYQQGPGQDPQFLISFYEKMQSDKGSIPDRFSAQQFSDYHSELNMSSLELGDSALYFCASSLAGTTVYNEQFFGPGTRLTVL
- EC50 of peptide [1]: 0.099 µg/ml and 81 nM

B6: TCR1336 (TCR, V domains shown)
Valpha: GENVEQHPSTLSVQEGDSAVIKCTYSDSASNYFPWYKQELGKRPQLIIDIRSNVGEKKDQRIAVTLNKTAKHFSLHITETQPEDSAVYFCAASGRYDYKLSFGAGTTVTVRA
Vbeta: DAMVIQNPRYQVTQFGKPVTLSCSQTLNHNVMYWYQQKSSQAPKLLFHYYDKDFNNEADTPDNFQSRRPNTSFCFLDIRSPGLGDAAMYLCATASDLQGDRSTEAFFGQGTRLTVV
- EC50 of peptide [1]: 0.387 µg/ml and 310 nM

B7: TCR2219 (TCR, V domains shown)
Valpha: QQPVQSPQAVILREGEDAVINCSSSKALYSVHWYRQKHGEAPVFLMILLKGGEQMRHEKIFASFNEKKQQSSLYLTASQLSYSGTYFCGTAHLRAGSYQLTFGKGTKLSVIP
Vbeta: EAQVTQNPRYLITVTGKKLTVTCSQNMNHEYMSWYRQDPGLGLRQIYYSMNVEVTDKGDVPEGYKVSRKEKRNFPLILESPSPNQTSLYFCASSSSSGGAFNEQFFGPGTRLTVL
- EC50 of peptide [1]: 0.123 µg/ml and 100 nM

B8: TCR2202 (TCR, V domains shown)
Valpha: LAKTTQPISMDSYEGQEVNITCSHNNIATNDYITWYQQFPSQGPRFIIQGYKTKVTNEVASLFIPADRKSSTLSLPRVSLSDTAVYYCLSLSDSNYQLIWGAGTKLIIKP
Vbeta: DSGVTQTPKHLITATGQRVTLRCSPRSGDLSVYWYQQSLDQGLQFLIQYYNGEERAKGNILERFSAQQFPDLHSELNLSSLELGDSALYFCASSVGQGSYEQYFGPGTRLTVT
- EC50 of peptide [1]: 0.033 µg/ml and 27 nM

B9: TCR2205 (TCR, V domains shown)
Valpha: LAKTTQPISMDSYEGQEVNITCSHNNIATNDYITWYQQFPSQGPRFIIQGYKTKVTNEVASLFIPADRKSSTLSLPRVSLSDTAVYYCLVGRDGGSYIPTFGRGTSLIVHP
Vbeta: B8 Vbeta with Q48H, V95A, S99A
- EC50 of peptide [1]: 0.004 µg/ml and 3.2 nM

B10: TCR2719 (TCR, V domains shown)
Valpha: B8 Valpha with S90V, L91G, S92A
Vbeta: B8 Vbeta with V95P, Q97G, S99A
- EC50 of peptide [1]: 0.024 µg/ml and 19 nM

B11: TCR1610 (TCR, V domains shown)
Valpha: KQEVTQIPAALSVPEGENLVLNCSFTDSAIYNLQWFRQDPGKGLTSLLLIQSSQREQTSGRLNASLDKSSGRSTLYIAASQPGDSATYLCAPLGGGYNKLIFGAGTRLAVHP
Vbeta: NAGVTQTPKFRILKIGQSMTLQCAQDMNHNYMYWYRQDPGMGLKLIYYSVGAGITDKGEVPNGYNVSRSTTEDFPLRLELAAPSQTSVYFCASRLPTTDEKLFFGSGTQLSVL
- EC50 of peptide [1]: 0.009 µg/ml and 7.4 nM

B12: TCR2207 (TCR, V domains shown)
Valpha: GQNIDQPTEMTATEGAIVQINCTYQTSGFNGLFWYQQHAGEAPTFLSYNVLDGLEEKGRFSSFLSRSKGYSYLLLKELQMKDSASYLCAVDVGYSTLTFGKGTMLLVSP
Vbeta: GAVVSQHPSWVICKSGTSVKIECRSLDFQATTMFWYRQFPKQSLMLMATSNEGSKATYEQGVEKDKFLINHASLTLSTLTVTSAHPEDSSFYICSARDRSGTLGGELFFGEGSRLTVL
- EC50 of peptide [1]: 0.003 µg/ml and 2.4 nM
